One molecule from patent US20250197485A1, “Anti-ED-A Antibodies for the Treatment of Pulmonary Hypertension” (Universitätsklinikum Jena, priority 2022, published 2025) can be followed below.

In assay [1] the test system is MCT-induced PH. Kind of assay: Echocardiographic assessment in mouse model of MCT-induced PH. The class given is in vivo, C57BL/6 mice. The source says:
PH was induced in C57BL/6 mice (bodyweight: 25-30 g). The animals were obtained from ZET facility (Zentale Experimentelle Tierhaltung) of the University Hospital Jena (UKJ, Jena, Germany). Prior to PH induction, mice were allowed to acclimatize for at least 7 days with ad libitum access to food and water as well as controlled light/dark cycles. 41 animals were investigated divided into the following five experimental groups: • 1) sham induced controls (n=7) • 2) MCT induced PH (n=12) • 3) MCT induced PH+MAC (n=6) • 4) MCT induced PH+F8 IgG (n=8) • 5) MCT induced PH+KSF IgG (n=8) For PH induction, the Monocrotaline (MCT, Carl Roth, Germany) method was used. The sham induced controls were injected with 30 μl NaCl not containing MCT at day 1 (single dose; intraperitoneally, i.p.). […] The other 4 experimental groups were injected with MCT to induce PH (single dose; intraperitoneally, i.p.; 60 mg/kg body weight; volume 30 μl). Animals in the MCT induced PH+MAC group received the drug (Macitentan, Actelion Pharmaceuticals Ltd.) from day 14 to day 28 (once daily; per os; 15 mg/kg body weight). Animals in the MCT induced PH+F8 IgG group received F8 IgG 3 times on day 14, 16 and 18 (intravenously, i.v.; 195 μg/injection; volume 200 μl). Similarly, animals in the MCT induced PH+KSF IgG group received KSF IgG 3 times on day 14, 16 and 18 (intravenously, i.v.; 195 μg/injection; volume 120 μl). Echocardiographic assessment was performed on day 28 using the Vevo 770 Rodent-Ultrasound-System, Visual Sonic, Canada, 17 MHz probe RMV176. Before echocardiography, mice were anesthetized with isoflurane for a duration time of less than 10 minutes (isoflurane-CP, 2.5V %, FiO2 1.0, oxygen per inhalation-flow dosage). Body temperature and respiratory rate were continuously monitored. All surrogate parameters of right ventricular (RV) morphology and function were assessed, among others, RV basal and medial diameters (in mm), RV length (in mm), tricuspid annular plane systolic excursion (TAPSE, in mm), right atrial area (RA area, in mm^2) or main pulmonary artery diameter (MPA, in mm). Statistical analyses were performed using IBM SPSS statistical software, version 28.0 (IBM SPSS Statistics for Windows. Armonk, NY, USA). Data are expressed as mean±standard deviation. Kruskal-Wallis and Mann-Whitney-U test were used to test for significant differences between the different groups. A p-value<0.05 as statistically significant.

The subject of assay [2] is MCT-induced PH. Kind of assay: Mouse model of MCT-induced PH, overall hemodynamic, echocardiographic and histopathological evaluation. It counts as in vivo, C57BL/6 mice. The note with it: compared with MAC treatment. An excerpt:
PH was induced in C57BL/6 mice (bodyweight: 25-30 g). The animals were obtained from ZET facility (Zentale Experimentelle Tierhaltung) of the University Hospital Jena (UKJ, Jena, Germany). Prior to PH induction, mice were allowed to acclimatize for at least 7 days with ad libitum access to food and water as well as controlled light/dark cycles. 41 animals were investigated divided into the following five experimental groups: • 1) sham induced controls (n=7) • 2) MCT induced PH (n=12) • 3) MCT induced PH+MAC (n=6) • 4) MCT induced PH+F8 IgG (n=8) • 5) MCT induced PH+KSF IgG (n=8) For PH induction, the Monocrotaline (MCT, Carl Roth, Germany) method was used. […] The clinical condition was assessed using an established score (clinical severity score=CSS) from 1 to 5 (1=no signs of clinical alterations, 2=low-grade impairment, 3=mid-grade impairment, 4=high-grade impairment, 5=exitus) obtained by evaluating spontaneous activity, reaction to exogenous stimuli and posture. […] Body temperature and respiratory rate were continuously monitored. All surrogate parameters of right ventricular (RV) morphology and function were assessed, among others, RV basal and medial diameters (in mm), RV length (in mm), tricuspid annular plane systolic excursion (TAPSE, in mm), right atrial area (RA area, in mm^2) or main pulmonary artery diameter (MPA, in mm). […] Data are expressed as mean±standard deviation. […]

B1: F8 IgG: Chimaeric anti-ED-A antibody: human F8 VH/VL fused to murine IgG2a constant regions; heavy chain SEQ ID NO: 11, light chain SEQ ID NO: 12 (antibody)
heavy: EVQLLESGGGLVQPGGSLRLSCAASGFTFSLFTMSWVRQAPGKGLEWVSAISGSGGSTYYADSVKGRFTISRDNSKNTLYLQMNSLRAEDTAVYYCAKSTHLYLFDYWGQGTLVTVSSAKTTAPSVYPLAPVCGDTTGSSVTLGCLVKGYFPEPVTLTWNSGSLSSGVHTFPAVLQSDLYTLSSSVTVTSSTWPSQSITCNVAHPASSTKVDKKIEPRGPTIKPCPPCKCPAPNLLGGPSVFIFPPKIKDVLMISLSPIVTCVVVDVSEDDPDVQISWFVNNVEVHTAQTQTHREDYNSTLRVVSALPIQHQDWMSGKEFKCKVNNKDLPAPIERTISKPKGSVRAPQVYVLPPPEEEMTKKQVTLTCMVTDFMPEDIYVEWTNNGKTELNYKNTEPVLDSDGSYFMYSKLRVEKKNWVERNSYSCSVVHEGLHNHHTTKSFSRTPGK
light: EIVLTQSPGTLSLSPGERATLSCRASQSVSMPFLAWYQQKPGQAPRLLIYGASSRATGIPDRFSGSGSGTDFTLTISRLEPEDFAVYYCQQMRGRPPTFGQGTKVEIKRTDAAPTVSIFPPSSEQLTSGGASVVCFLNNFYPKDINVKWKIDGSERQNGVLNSWTDQDSKDSTYSMSSTLTLTKDEYERHNSYTCEATHKTSTSPIVKSFNRNEC
Consider B1, for which, in the assay on MCT-induced PH [1] (day 28, all groups p<0.05, F8 IgG p=0.028), the “RV medial diameter compared to the negative controls” value is reported as “significantly increased”. In the assay on MCT-induced PH [1] (day 28, p=0.002), the “RV basal diameter compared with the MCT-induced PH group without treatment” value is “significant attenuation”. Besides, in the assay with MCT-induced PH [1] (day 28, p=0.003), the “RA area compared with the MCT-induced PH group with MAC treatment” value is on record as “significant reduction” and the “TAPSE compared to the MCT-induced PH group with MAC treatment” value is recorded as “significant improvement”. Besides, the “TAPSE compared to the MCT-induced PH group without treatment” value in the assay on MCT-induced PH [1] (day 28, p=0.004) is on record as “significant improvement”. Moreover, in the assay on MCT-induced PH [1] (day 28, p=0.005), the “RV basal diameter compared with the MCT-induced PH group with KSF IgG treatment” value is “significant attenuation” and the “RV basal diameter compared with the MCT-induced PH group with MAC treatment” value was “significant attenuation”. For the same molecule, the “RA area compared with the MCT-induced PH group with KSF IgG treatment” value in the assay with MCT-induced PH [1] (day 28, p=0.009) is given as “significant reduction”. Moreover, the “RV medial diameter compared with the MCT-induced PH group with KSF IgG treatment” value with MCT-induced PH [1] (day 28, p=0.010) was “significantly reduced”. Further, the “RV medial diameter compared with the MCT-induced PH group without treatment” value in the assay on MCT-induced PH [1] (day 28, p=0.017) is recorded as “significantly reduced”. Besides, in the assay on MCT-induced PH [1] (day 28, p=0.021), the “RA area compared with the MCT-induced PH group without treatment” value is recorded as “significant reduction”. Also, in the assay with MCT-induced PH [1] (day 28, p=0.049), the “TAPSE compared to the MCT-induced PH group with KSF IgG treatment” value is given as “significant improvement”. The “echocardiographic signs of right ventricular load and dysfunction” value with MCT-induced PH [1] (in contrast to treatment with KSF IgG) is reported as “improvement”. Further, the “beneficial effects with respect to the majority of the parameters (RVPsys, echocardiographic signs, lung tissue damage)” value with MCT-induced PH [2] was “superior to MAC treatment”.
